Test results: patent publication US9765346B2, “Biological methods for preparing a fatty dicarboxylic acid” (Verdezyne, Inc., priority 2011, dated 2017)

Target: T1, Pox4 (Candida tropicalis, UniProt P06598)
T1 construct: made in house; host or cells: E. coli Rosetta II BL21, pET26b; crude cell lysate (10 ug per reaction)
Format: biochemical, Candida strain ATCC20336
Conditions: native isozyme
Procedure: To express an enzyme, a colony from each transformation of Rosetta cells was used to start a 5 ml overnight culture of LB containing the antibiotics kanamycin (to select for pET26b) and chloramphenicol (to select for a second plasmid found in Rosetta II cells that mediates improved translation of eukaryotic proteins expressed in E. coli) grown at 37° C. The next morning, the overnight culture was used to seed 30 ml of LB containing kanamycin and chloramphenicol to an OD600 reading of 0.1. The 30 ml cultures were grown at 37° C. for 2 hours and then placed on ice for 10 minutes. To induce expression, isopropyl-beta-D-thiogalactopyranoside (IPTG) was added to the culture to a final concentration of 0.1 mM. In some cases induction was performed using Novagen Overnight Express Autoinduction System 1 (CAT#71300-3). The cells were then shaken at 15° C. overnight to express the acyl CoA oxidase.
To test the activity of the acyl CoA oxidase, cells from the overnight induction were pelleted at 1046×g at 4° C. in 50 ml conical tubes. The cell pellets were resuspended in 1 ml of 50 mM KPO4, pH 7.6, 50 μM FAD buffer and then transferred to a 2 ml centrifuge tube. A Misonix Sonicator 3000 (QSonica, Newtown, Conn.) was used to lyse the cells, which were sonicated at a power setting of 2 for 2 pulses of 20 seconds each. […] The spectrophotometer was set to read for 5 minutes at 500 nm, 30° C. […]

B1: Pox4p: native acyl-CoA oxidase isozyme of Candida strain ATCC20336 (protein, UniProt P06598 2-709, looked up)
Acyl-coenzyme A oxidase 4: TFTKKNVSVSQGPDPRSSIQKERDSSKWNPQQMNYFLEGSVERSELMKALAQQMERDPILFTDGSYYDLTKDQQRELTAVKINRIARYREQESIDTFNKRLSLIGIFDPQVGTRIGVNLGLFLSCIRGNGTTSQLNYWANEKETADVKGIYGCFGMTELAHGSNVAGLETTATFDKESDEFVINTPHIGATKWWIGGAAHSATHCSVYARLIVDGQDYGVKTFVVPLRDSNHDLMPGVTVGDIGPKMGRDGIDNGWIQFSNVRIPRFFMLQKFCKVSAEGEVTLPPLEQLSYSALLGGRVMMVLDSYRMLARMSTIALRYAIGRRQFKGDNVDPNDPNALETQLIDYPLHQKRLFPYFVPPMSSPSVPSRLNTPSRPPWSNWTSPLKRTTPRLIFKSIDDMKSLFVDSGSLKSTATWLGAEAIDQCRQACGGHGHSSYNGFGKAYNDWVVQCTWEGDNNVLGMSVGKPIVKQVISIEDAGKTVRGSTAFLNQLKEYTGSNSSKVVLNTVADLDDIKTVIKAIEVAIIRLSQEAASIVKKESFDYVGAELVQLSKLKAHHYLLTEYIRRIDTFDQKELAPYLITLGKLYAATIVLDRFAGVFLTFNVASTEAITALASVQIPKLCAEVRPNVVAYTDSFQQSDMIVNSAIGRYDGDIYENYFDLVKLQNPPSKTKAPYSDALEAMLNRPTLDERERFQKSDETAAILSK
substrate specificity: broad substrate specificity
